Assay results as given in publication PMC3296483 (Biochemical Journal, 2011).

Tests used:
[1] = molecular target: GluA2 ATD (Rattus norvegicus) (UniProt P19491); conditions: cited from earlier work
crystal structure = molecular target: the molecule itself; experiment: crystal structure

Sequence of GluA1 ATD (P19490 19-394): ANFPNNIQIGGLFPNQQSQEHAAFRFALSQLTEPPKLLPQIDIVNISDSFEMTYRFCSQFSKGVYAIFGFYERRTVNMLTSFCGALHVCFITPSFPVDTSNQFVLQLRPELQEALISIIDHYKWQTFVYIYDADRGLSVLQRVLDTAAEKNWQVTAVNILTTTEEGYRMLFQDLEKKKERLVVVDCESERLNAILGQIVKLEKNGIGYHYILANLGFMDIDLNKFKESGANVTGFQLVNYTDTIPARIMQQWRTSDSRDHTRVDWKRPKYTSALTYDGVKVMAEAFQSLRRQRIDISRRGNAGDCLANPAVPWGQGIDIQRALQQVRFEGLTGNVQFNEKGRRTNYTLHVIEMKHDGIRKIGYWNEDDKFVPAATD
Sequence of GluA2 ATD (Rattus norvegicus) (P19491 22-398): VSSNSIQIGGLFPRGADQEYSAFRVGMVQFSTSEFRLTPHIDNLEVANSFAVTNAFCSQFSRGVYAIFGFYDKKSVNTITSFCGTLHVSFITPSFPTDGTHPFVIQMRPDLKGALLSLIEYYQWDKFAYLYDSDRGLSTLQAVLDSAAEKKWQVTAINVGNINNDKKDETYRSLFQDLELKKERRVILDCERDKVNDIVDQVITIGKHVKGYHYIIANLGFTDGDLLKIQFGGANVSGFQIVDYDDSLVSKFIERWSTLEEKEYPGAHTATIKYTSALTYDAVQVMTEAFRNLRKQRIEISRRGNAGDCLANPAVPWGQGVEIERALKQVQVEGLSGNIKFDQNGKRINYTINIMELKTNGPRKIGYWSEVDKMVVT

Row | Molecule | Kd [1] | binding result (crystal structure)
1 | GluA1 ATD (from UniProt P19490) | 0.4 nM | –
2 | rat GluA1 amino-terminal domain (P4-A374), tags removed (domain or fragment, UniProt P19490 22-392, looked up) PNNIQIGGLFPNQQSQEHAAFRFALSQLTEPPKLLPQIDIVNISDSFEMTYRFCSQFSKGVYAIFGFYERRTVNMLTSFCGALHVCFITPSFPVDTSNQFVLQLRPELQEALISIIDHYKWQTFVYIYDADRGLSVLQRVLDTAAEKNWQVTAVNILTTTEEGYRMLFQDLEKKKERLVVVDCESERLNAILGQIVKLEKNGIGYHYILANLGFMDIDLNKFKESGANVTGFQLVNYTDTIPARIMQQWRTSDSRDHTRVDWKRPKYTSALTYDGVKVMAEAFQSLRRQRIDISRRGNAGDCLANPAVPWGQGIDIQRALQQVRFEGLTGNVQFNEKGRRTNYTLHVIEMKHDGIRKIGYWNEDDKFVPAA | – | binds
